Measurements from the supplement of paper PMC9170038.

System: MS2 coat protein
Experiment: apparent KD of MS2 coat protein; designed switch direction (-1 OFF switch, 1 ON switch): 1; higher = weaker reporter binding
Method in brief: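 For each design, the apparent KD is the median over clusters of curves fitted to normalised cluster fluorescence. Clusters held RNA switches with common flanks, transcribed on Illumina chips by stalled E. coli RNA polymerase. These were titrated with SNAP-549-labelled MS2 coat protein, doubling from 0.7 or 1.5 nM to 3 µM, without input, with 200 uM small-molecule ligand, or with an oligonucleotide input.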

[1] = input ligand: microRNA oligo, concentration not stated
[2] = Eterna round: R95, input ligand: FMN 200 uM
[3] = Eterna round: R95, input ligand: microRNA oligo, concentration not stated
[4] = Eterna round: R95, input ligand: none

GUCGGCCUGUCGUGCUGAGGUGAUAGUUAACAUGAGGAUCACCCAUGUUGCUGUCGGGUCGUUGGGAGUUUUCUUCG [Modxample 117 - Jieux - Sensor for bsa-mir-208a] (Eterna round: R96, puzzle: Sensor for hsa-mir-208a)
apparent KD of MS2 coat protein (input ligand: FMN 200 uM): 71.2 nM
apparent KD of MS2 coat protein [1]: 50.8 nM
apparent KD of MS2 coat protein (input ligand: none): 62.4 nM

GUGGUCAGACAUGAGGAUCACCCAUGUGGAAUAAAUAAGGACAAGGAUAUGGAAUAUAGGAUAUACCAGAAGGUGUGGUUGGUG (Eterna round: R96, puzzle: Same State NG 3)
apparent KD of MS2 coat protein [1]: 67.5 nM

GGUCCAGCCUGAGCUGGACAAAAGCAUGUACAUGAGGAUCACCCAUGUCAUGUACAAGCUUUUUGCUCGUCUAAAAU [Mat - hsa-mir-208a - 101] (puzzle: Sensor for hsa-mir-208a)
apparent KD of MS2 coat protein [2]: 508 nM
apparent KD of MS2 coat protein [3]: 15.8 nM
apparent KD of MS2 coat protein [4]: 629 nM

AGGGCCGCGGCACAGGAUAUGCACAGGUUCACAUGAGGAUCACCCAUGUGCUCUAGAUAGCUUGAGCAGAAGGGUGUCAUGGUAA [Beadi] (puzzle: Same State 2)
apparent KD of MS2 coat protein [2]: 16.3 nM
apparent KD of MS2 coat protein [3]: 18.2 nM
apparent KD of MS2 coat protein [4]: 27.9 nM

GGUCCAGCCUGAGCUGGACAAAAGCAUGUACAUGAGGAUCACCCAUGUCAUGUACAAGCUUUUUGCUCGUCUAAAUA [Mat - hsa-mir-208a - 90] (puzzle: Sensor for hsa-mir-208a)
apparent KD of MS2 coat protein [2]: 464 nM
apparent KD of MS2 coat protein [3]: 16.3 nM
apparent KD of MS2 coat protein [4]: 557 nM

GUAAAACAUGAGGAUCACCCAUGUCAACAAAGUCGAGGAUAUGGGCAAAUAAAAUAAGAACCAGAAGGCGAAUAAG [salish99_SS1_r3_009] (Eterna round: R96, puzzle: Same State 1)
apparent KD of MS2 coat protein (input ligand: FMN 200 uM): 45.9 nM
apparent KD of MS2 coat protein [1]: 125 nM
apparent KD of MS2 coat protein (input ligand: none): 235 nM

CUGAGCGAUCAAGGAUAUCACGUCGAUUAGACGUGAGAAGGUGAUAAUUACAUGAGGAUCACCCAUGUAUAACAUGAAGCUCAG [SSNG1/9-A2] (Eterna round: R96, puzzle: Same State NG 1)
apparent KD of MS2 coat protein (input ligand: FMN 200 uM): 16 nM
apparent KD of MS2 coat protein [1]: 17.3 nM
apparent KD of MS2 coat protein (input ligand: none): 19.8 nM

UUCCCAUCGGGAGGAUAUGGAACCUUAUUGGUUCUAGAAGGUCCAACAUGAGGAUCACCCAUGUGGGAGUGGUCUAAUGACCUC [SS NG10LRO03] (Eterna round: R96, puzzle: Same State NG 1)
apparent KD of MS2 coat protein (input ligand: FMN 200 uM): 264 nM
apparent KD of MS2 coat protein [1]: 288 nM
apparent KD of MS2 coat protein (input ligand: none): 333 nM

GUUACAUGAGGAUCACCCAUGUAAGUGUGGGAGAAAGUGACUUAGGAUAUCUAAUAUUUAAAUUAAGAGAAGGAAGAUUGUUGU [JMF's solution 4] (Eterna round: R96, puzzle: Same State NG 3)
apparent KD of MS2 coat protein (input ligand: FMN 200 uM): 86.8 nM
apparent KD of MS2 coat protein [1]: 64.3 nM
apparent KD of MS2 coat protein (input ligand: none): 81.6 nM

CUUGCCCAGUCAGGAUAUGGGAAAGGAAGUGUACCAGAAGGGACAAGAAAGGACAUGAGGAUCACCCAUGUCGGGCAGGCGAGA [PowerStrip SSNG 1.23] (Eterna round: R96, puzzle: Same State NG 1)
apparent KD of MS2 coat protein (input ligand: FMN 200 uM): 32.8 nM
apparent KD of MS2 coat protein [1]: 82.3 nM
apparent KD of MS2 coat protein (input ligand: none): 97.1 nM

GGAGAGAGAGCACAGGAUAUUUAAGGAGAGACAUGAGGAUCACCCAUGUGAGAGAGAGAGGAGAGAGAGAAGGGUGAGAGAGAGG [Altered State 2-17 - Jieux - Same State 2] (puzzle: Same State 2)
apparent KD of MS2 coat protein [2]: 109 nM
apparent KD of MS2 coat protein [3]: 79.1 nM
apparent KD of MS2 coat protein [4]: 83.9 nM

AUUUCUAGCACAGGAUAUCAUGCGAAAAUUGCGUGAGAAGGGUGGACGCUGUCAUUCACGGAAGACAUGAGGAUCACCCAUGUC [SameState NG1 #76] (Eterna round: R96, puzzle: Same State NG 1)
apparent KD of MS2 coat protein (input ligand: FMN 200 uM): 48 nM
apparent KD of MS2 coat protein [1]: 53.4 nM
apparent KD of MS2 coat protein (input ligand: none): 102 nM

AAGCGCUGUCGAGAGGAUAUGCGGUGAUGGACAUGAGGAUCACCCAUGUUAGCGAUAGCAUUACGGUAGAAGGCUCUACAGCUGA [Mat - Same State 2 - Mod of UCT - D86] (puzzle: Same State 2)
apparent KD of MS2 coat protein [2]: 28.3 nM
apparent KD of MS2 coat protein [3]: 268 nM
apparent KD of MS2 coat protein [4]: 272 nM

UGCAUACGCCUACAAGAGGAGUCCUGCAGACAUGAGGAUCACCCAUGUAACUCGAAUUCAGUUCGUUCGUCUGUCGU [JR_hsamir208a_Sub1412] (Eterna round: R96, puzzle: Sensor for hsa-mir-208a)
apparent KD of MS2 coat protein (input ligand: FMN 200 uM): 57 nM
apparent KD of MS2 coat protein [1]: 33.9 nM
apparent KD of MS2 coat protein (input ligand: none): 52.9 nM

GGAGCUGUUAUAGGAUAUCCCGCGCAUUACGCGGGAGAAGGGUGACGCUCACAUGAGGAUCACCCAUGUGGCGUUCCAAAAUAA [Rate] (Eterna round: R96, puzzle: Same State NG 1)
apparent KD of MS2 coat protein (input ligand: FMN 200 uM): 11.8 nM
apparent KD of MS2 coat protein [1]: 8.12 nM
apparent KD of MS2 coat protein (input ligand: none): 12.4 nM

GUGGUCUGACAUGAGGAUCACCCAUGUGGAAUAAAUACGGGUUAGGAUAUCUUGAGGAUCACCCAAGAGAAGGGAUCGAUUGUU (Eterna round: R96, puzzle: Same State NG 3)
apparent KD of MS2 coat protein [1]: 36.4 nM

ACUCAGUACAAUUUAGAUCUACAUGAGGAUCACCCAUGUACUGAGGAUAUCAGCUCGAAUAGAGCUGAGAAGGCAGUUGUACUA [SSNG3/10-A1] (Eterna round: R96, puzzle: Same State NG 3)
apparent KD of MS2 coat protein (input ligand: FMN 200 uM): 102 nM
apparent KD of MS2 coat protein [1]: 138 nM
apparent KD of MS2 coat protein (input ligand: none): 248 nM

AUUAGUAAUGCAGGAUAUGAUUAACAUGAGGAUCACCCAUGUGGUGUUGUGAGUAAGGAGAGUGAUCAGAAGGGCAUUUUUUUU [JMF's solution 28] (Eterna round: R96, puzzle: Same State NG 2)
apparent KD of MS2 coat protein (input ligand: FMN 200 uM): 979 nM
apparent KD of MS2 coat protein [1]: 411 nM
apparent KD of MS2 coat protein (input ligand: none): 444 nM

GCUAGAAUAAAUGCCUACAUGAGGAUCACCCAUGUAUGUAGGCAGGAUAUCGUUUGCAAAGCAAACGAGAAGGGCCUUACUAGC [Mat - Same State NG 3 - JL Mod - D29] (Eterna round: R96, puzzle: Same State NG 3)
apparent KD of MS2 coat protein (input ligand: FMN 200 uM): 21.5 nM
apparent KD of MS2 coat protein [1]: 43 nM
apparent KD of MS2 coat protein (input ligand: none): 55.7 nM

GCAGGACAUGAGGAUCACCCAUGUUCAAAAUAUAGAGGAUAUGGAUACGGUAUAUCCGAACCAGAAGGCUACCUGC [SS1 Teenbexe 23] (puzzle: Same State 1)
apparent KD of MS2 coat protein [3]: 13.7 nM

AUUACUAGCAUAGGAUAUCAUGCGAAAAUUGCGUGAGAAGGGUGGACGCUGUCAUUCACGGAAGACAUGAGGAUCACCCAUGUC [SameState NG1 #74] (Eterna round: R96, puzzle: Same State NG 1)
apparent KD of MS2 coat protein (input ligand: FMN 200 uM): 142 nM
apparent KD of MS2 coat protein [1]: 68.5 nM
apparent KD of MS2 coat protein (input ligand: none): 94 nM

AUUAUUAAUGCAGGAUAUGAUUAACAUGAGGAUCACCCAUGUGGUGUUGUGAGUAAGGAGAGUGAUCAGAAGGGCAUUUCUUUU [JMF's solution 11] (Eterna round: R96, puzzle: Same State NG 2)
apparent KD of MS2 coat protein (input ligand: FMN 200 uM): 468 nM
apparent KD of MS2 coat protein [1]: 241 nM
apparent KD of MS2 coat protein (input ligand: none): 373 nM

GGUUUAGUCAGGCACAAUUGCGCCUGAAAACAUGAGGAUCACCCAUGUUUGGGACAAGCUUUGCUCCUCGUCUUGCA [Enzati] (puzzle: Sensor for hsa-mir-208a)
apparent KD of MS2 coat protein [2]: 306 nM
apparent KD of MS2 coat protein [3]: 68.1 nM
apparent KD of MS2 coat protein [4]: 385 nM

GCGAGCGUACUUGCAACAUGAGGAUCACCCAUGUUAACUGGACAGGAUAUGGUACCGUUUCGGUACCAGAAGGGUUCCUCCAUG [JL SSNG3 3.61] (Eterna round: R96, puzzle: Same State NG 3)
apparent KD of MS2 coat protein (input ligand: FMN 200 uM): 160 nM
apparent KD of MS2 coat protein [1]: 134 nM
apparent KD of MS2 coat protein (input ligand: none): 135 nM

GGCAGGUGCAGGCUUGCUUGCACCUGGAGACAUGAGGAUCACCCAUGUUUGGGACAAGCUUUGCUCCUCGUCUUUUC [JL ViennaUCT Isusreraar mod 7] (Eterna round: R96, puzzle: Sensor for hsa-mir-208a)
apparent KD of MS2 coat protein (input ligand: FMN 200 uM): 622 nM
apparent KD of MS2 coat protein [1]: 111 nM
apparent KD of MS2 coat protein (input ligand: none): 775 nM

AGGCUCAGACUAGGAUAUAUGUGGUCACAUGAGGAUCACCCAUGUCUCGAGCUUCGGCUCGAGGCAUAGAAGGAGUCUGAGCCA [SSNG2/5-D1] (Eterna round: R96, puzzle: Same State NG 2)
apparent KD of MS2 coat protein (input ligand: FMN 200 uM): 459 nM
apparent KD of MS2 coat protein [1]: 14 nM
apparent KD of MS2 coat protein (input ligand: none): 713 nM

GGCCUCUGUCAAGGAUAUGCUACCGUUUCGGUAGCAGAAGGUGAUCACAUGAGGAUCACCCAUGUUUAGGCCAACAGGCCCGCC (Eterna round: R96, puzzle: Same State NG 1)
apparent KD of MS2 coat protein (input ligand: FMN 200 uM): 1420 nM
apparent KD of MS2 coat protein [1]: 445 nM
apparent KD of MS2 coat protein (input ligand: none): 1070 nM

AGAUGUUAAUCAGGAUAUGGGCACAUGAGGAUCACCCAUGUAUUUUCGAUGCUAUGUGGAGACGUCUAGAAGGGAUGGCUAACA [SameState NG2 #86] (Eterna round: R96, puzzle: Same State NG 2)
apparent KD of MS2 coat protein (input ligand: FMN 200 uM): 165 nM
apparent KD of MS2 coat protein [1]: 126 nM
apparent KD of MS2 coat protein (input ligand: none): 185 nM

CUGACGUGAUCAGGAUAUUGUAAGACAAUGUUGCAAGAAGGGAUUAAUGAGCCCGAACAGACAUGAGGAUCACCCAUGUGUCAG [Eternabot solution 41] (Eterna round: R96, puzzle: Same State NG 1)
apparent KD of MS2 coat protein (input ligand: FMN 200 uM): 69.5 nM
apparent KD of MS2 coat protein [1]: 51.6 nM
apparent KD of MS2 coat protein (input ligand: none): 67.6 nM

GUGGUCAGACAUGAGGAUCACCCAUGUGGAAUAAAUAAGGGUCAGGAUAUGGAAUAUAGGAUAUACCAGAAGGGAUGGUUGGUG (Eterna round: R96, puzzle: Same State NG 3)
apparent KD of MS2 coat protein (input ligand: FMN 200 uM): 134 nM
apparent KD of MS2 coat protein [1]: 70.2 nM
apparent KD of MS2 coat protein (input ligand: none): 92.8 nM

GGUCCAGCCUGAGCUGGACAAAAGCAUGUACAUGAGGAUCACCCAUGUCAUGUACAAGCUUUUUGCUCGUCUAAAUU [Mat - hsa-mir-208a - 94] (puzzle: Sensor for hsa-mir-208a)
apparent KD of MS2 coat protein [2]: 781 nM
apparent KD of MS2 coat protein [3]: 15.1 nM
apparent KD of MS2 coat protein [4]: 578 nM
